{"source": "patent US20180051068A1", "molecular_target": "integrin β1 expressed by the β1AGD25 cell line", "assay": "cell-based or functional assay"}
{"substance": "CalA-mCherry expressed in S. cerevisiae that co-expresses Candida albicans Als1", "values": [{"measurement": "endocytosis of S. cerevisiae by β1AGD25 cells (differential fluorescence assay)", "value": 3, "unit": "times"}]}
